# Reference: the DeepSol protein solubility set
# Assay: soluble on expression in E. coli; label from the status in PepcDB or PDB records
row,Sequence,soluble on expression in E. coli
1,GKNVMVEPHRHEGVFICRGKEDALVTKNLVPGESVYGEKRVSISEGDDKIEYRAWNPFRSKLAAAILGGVDQIHIKPGAKVLYLGAASGTTVSHVSDIVGPDGLVYAVEFSHRSGRDLINLAKKRTNIIPVIEDARHPHKYRMLIAMVDVIFADVAQPDQTRIVALNAHTFLRNGGHFVISIKANCIDSTASAEAVFASEVKKMQQENMKPQEQLTLEPYERDHAVVVGVYRP,soluble
2,MAHHHHHHMQEVMQKALAGRYDPLPPTISPEMTEVVTSLLCGDPHARPSSSKLLNMPICKLFVSGLLEIVQTQPSFAGPLRDTISTHIQSVKQSLKEERRVTVRQMEESQSAAAASTTILEGATPMGSVGDLTLYEGIVKKQSGDLAWKRRYLCIRGALEEGERLDVGRMPKFKSLDLVLAVSKETMRQQCITTPFSELEDVFPVASKYTGSNAQHVFAVAFKTGRRLLFQARGDPERDAWMQKIQQTLGIDEAD,not soluble
3,MSLHRFQYKAYRRSFAGTFANARESFAKREGLMIRLEDRDGRVGFGEVAPIVSFGSESFASAFSVAESLGEQVAFERVLPELAGYPCLRWACESALDMIAREGVWEELEKPWPICGLVADLGDLASVEEKLGMHYQCLKFKIGKKSLIEELKALDRVIELSEGKVQIRLDANGTLDMRTAIGWLERVAGLPVEFIEQPLPVGAEVEMRRLSADFPTLLALDESVDSVDDLKRWRDQQWPGLYVIKPSLSGSLLALGEELSGGAGDCVFSSSLETKIGESNAIGFAIRQSGHGRALGFGVERLFADRNVGLELGPFLQKGGLASSDDLESLWNLTEGHHHHHH,soluble
4,AFKQLMFPFGMDSKMESGIVMPTTQFWNPIAINNVEAQNDFYSRENLAALKLLQKQAQEPEKLARLLEVYHESLGYNIVRRAEEAKVALSDQTAYCTGINLLSELIEVDVQRDEMIEAIESPKNKMTALVTEAVEQAGVKPDAIFMTGGSARSPILRDAVQTVLPNIPVVSGNYFGSVTAGLARWADVCFK,not soluble
5,MIRKDLQKLEQEGLLKRTYGGAILERQTIHDDNIRPRLMKNLGEKDIIAKLALKEIKDGDFIFLDASTTNYSIASMLLNTKKQVTVVTNMNRIAILFDSHPSIDVICIGGIYNKNLGGTIGSKAIEDVKSYRFHKAFVGVGGINLVEDFISNFNLEEASMKNAIIKSSLKTYLVAENEKFYTDGICEFAKCEDIDFIISDKKPNEEILKLLKERNISIIYLEHHHHHH,soluble
6,MSEKIRVLLYYKYVSIENAQEYAAKHLEFCKSIGLKGRILIADEGINGTVSGDYETTQKYMDWVHSDERFADLWFKIDEENQQAFRKMFVRYKKEIVHLGLEDNNFDSDINPLETTGEYLNPKQFKEALLDEDTVVLDTRNDYEYDLGHFRGAIRPDIRNFRELPQWVRDNKDKFMEKRVVVYCTGGVRCEKFSGWMVREGFKDVGQLHGGIATYGKDPEVQGELWDGAMYVFDDRISVPINHVNPTVISKDYFDGTPCERYVNCANPFCNKQIFASEENETKYVRGCSPECRAHERNRYVQENGLSRQEWAERLEAIGESLPEFVGA,not soluble
7,MESTKSYDIPILRNVSRSFSVHYRDYLQRCGIFVPKEGNSSGPDAYVVFHNGQTRYVVGFSFKFYHKSEFSKRNIEEEAKKFFKGVVSVLNDESFSSVQLRFQFVMVVCTSYGRSVVFSSEEQNIVEDASYLVTEHSSGSTLNESSRSCLQLVIVSQRNLEMYLGRDNVETLRKIGEASREEFSKDFSVWCETVFESMSNEYVSPLEQSNVTLRVARNIRPRTNEENRMQIEELQTAMKVERSVAASSSLSSSFDWNTFLREYCGLSEEDVAYCLPKVEDIDMDELPAVTKEILRDLGIDKPALRLKIRSSIRSYLANER,soluble
8,MSLQSKTAKLPDNDRNRPLIQTFNDAQQKVWFDDALLHEDPSQCCNPEFWQQNGKVLGSATGRGTTWFVQLQQTQGALRHYRRGGLFGKLVADSYWFTGWEKTRSYQEFMLLNHLRDAGVNVPRPIAARVQKHGLLYKADLLSEKVPNARDLVSILQESPISDELYRKIGREIRKMHDAQVNHTDLNIHNILIDDQEKVWIIDFDKCYVQIGDSWKQGNLKRLKRSFEKEVCKRGINWSLEAFAIISSYKHEEEGHHHHHH,soluble
9,SATTIGPNTCSIDDYKPYCCQSMSGSASLGCVVGVIGSQCGASVKCCKDDVTNTGNSFLIINAANCVA,soluble
10,MAHHHHHHMLNKGFTATKIIGKRCFQWWDNLNTSWKFAIGFSVLFPPLWNYNERRKAREKQVYYNKSIRDYVFFDIAIENKYVGRVLIGLYSDQVPLSVENFIQLAEGYKVKDKYIGYRNTFIHKIYPGIGLVGGNVLNDKEGLSIYGKKFPDENFDMEFVQDGDVALFNEGPHSNSSQFIITFSPMPILHKHNVVIGTVLKGMDIIRMIENVGTKLGNPMYNVKIINCGLYRSLEQDGPPFFNMMHISDKGNKNIISKKEFESLSEQQRQSLMEEIGKSEKRR,soluble
11,MGSDKIHHHHHHMKHSRTAAAKRKTGVFARLADLYTRMEQEYSDKARAAGLTCAGCPDNCCTSYFQHHTHVEWLYLWRGMNRLPEARRAAYLARAKDVVEQSRDLLARGIRPRLMCPVNDDGLCGIYEHRLMICRMHGTRNVLALPDGGLRSFSGCFRFVECTAGQQAEAVPTVDRTPYYRELAALEMEHVGPRLKKLPRVDLTLAEMLFYGPPKL,not soluble
12,MSLVTLGEGFEKARLTRFLEKFGGNEGSQFLYLKDYGHFYYQEEGEDQVLFGFQMKFNKCFVLADPIGQREKWTAATLAFMDQADLLGYQLVFYRISEEYVMNLHDCGFEFMKVGEEGLIQFDEPSTVNQTAWTETVTEKIAAEAADFQFEFYPETISDALYQELERVSADWSRNQKERYFIGGRLDPEYLKCSSVGLVRQKQTVIGFITGKEMEKGKSISYDLLRIRSDAPAFTREYLFTHFIETYQQQGYQLIDIGMAPLANVGESKYSFLKERFVNIFYKYSYQIYAFQDTRKRKEQYVTSWQPRYFAYPKRTSVLFAFVQLSLLITKGRHQSVSLVEEAMTEIEGHHHHHH,soluble
13,TGAGTPSQGKKNTTTHTKCRRCGEKSYHTKKKVCSSCGFGKSAKRRDYEWQSKAGE,soluble
14,MLLNEIPWTIPLTVRLSNGLTHTFASVYEALDFLENEWPLRKGERYERAVRTCRRALNRMTPAAVAREAFIAACLEAGMPLVMAPPAREPQGDTVKAAHTA,not soluble
15,MGSDKIHHHHHHMTESEKQKLGKTLWAIADQLRGAMNADDFRDYMLAFLFLRYLSDNYEAAAQKELGTDYPDLPSDVLRQTGVNTPLQAWYEENLDDVSEFEKQMRRKVHYVIEPQYLWGNIAEMARTQDDELLHTLQKGFKYIEEESFASTFRGLFSEINLASDKLGKTYTERNARLCKIIAEIAKGLGQFSTDSDTLGDAYEYLIGQFAAGSGKKAGEFYTPQRISDILSAIVTLDSQEPATGKRSHLDSVFDFACGSGSLLLNVRRLMGPHGIGKIYGQEKNITTYNLARMNMLLHGVKDSEFEIFHGDTLLNEWDMLRETNPAKMPKFDAVVANPPFSYRWEPSEALGEDVRFKNYGLAPKSAADFAFLLHGFHFLKQDGVMAIILPHGVLFRGGAEARIRTKLLKDGHIDTVIGLPANLFFSTGIPVCILVLKKCKKPDDVLFINAAEHFERGKRQNQLLPEHIDKIIDTYRYRKEEPRYSRRVSMEEIEKNDFNLNISRYVSTAITEEEVDLNAVIGQLKAIEQEIYQAKSKHNEFLKELGLPLLP,not soluble
16,MGSDKIHHHHHHMSDLKSLATKFASDHESGKLLVLPTVWDTWSAGLVEEAGFSGLTIGSHPVADATGSSDGENMNFADYMAVVKKITSAVSIPVSVDVESGYGLSPADLIAQILEAGAVGINVEDVVHSEGKRVREAQEHADYIAAARQAADVAGVDVVINGRTDAVKLGADVFEDPMVEAIKRIKLMEQAGARSVYPVGLSTAEQVERLVDAVSVPVNITAHPVDGHGAGDLATLAGLGVRRVTFGPLWQKWLAATSAQQLKGWA,not soluble
